From US20210340217A1, “NOVEL PEPTIDES AND COMBINATION OF PEPTIDES FOR USE IN IMMUNOTHERAPY AGAINST OVARIAN CANCER AND OTHER CANCERS” (Immatics Biotechnologies GmbH, priority 2017, published 2021)

Each substance was assayed against HLA-A*01:01 (Homo sapiens, UniProt P04439, A114D/A174V/A182V/D101N/D185E/E176A/E190D/L180R/Q94H/R68K/S129P/T187R/V100A/V91M/W191G) (assay: MHC binding assay (UV-ligand exchange, beta2m ELISA)). Conditions: peptide exchange yield.
Method in brief: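 Peptide–MHC complexes formed by UV-induced exchange of a UV-cleavable peptide for the test peptide. Exchange yield measured by streptavidin-capture ELISA detecting β2m (HRP anti-β2m, TMB, A450) on 100-fold diluted samples. Quantified against refolded HLA-A*02:01/MLA-001 standards (15-500 ng/ml).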
For “112 (TVTGAEQIQY; listed as Homo sapiens) [compound 112]”, the Peptide exchange was “++ (>20% = ++)”.
With “113 (QLDSNRLTY; listed as Homo sapiens) [compound 113]” the Peptide exchange was “+++ (>50 = +++)”.
With “115 (FVDNQYWRY; listed as Homo sapiens) [compound 115]” the Peptide exchange was “+++ (>50 = +++)”.
With “116 (VLLDEGAMLLY; listed as Homo sapiens) [compound 116]” the Peptide exchange was “++ (>20% = ++)”.
“291 (ETIRSVGYY; listed as Homo sapiens) [compound 291]” was tested, and the Peptide exchange was “+++ (>50 = +++)”.

These substances were tested on CD8+ T cells (assay: In vitro immunogenicity for MHC class I presented peptides (in vitro priming of CD8+ T cells with aAPCs, pMHC multimer readout)). Conditions: not given.
Type: cell-based, human
Experimental: In order to obtain information regarding the immunogenicity of the TUMAPs of the present invention, the inventors performed investigations using an in vitro T-cell priming assay based on repeated stimulations of CD8+ T cells with artificial antigen presenting cells (aAPCs) loaded with peptide/MHC complexes and anti-CD28 antibody. […]
Generation of pMHC/anti-CD28 coated beads, T-cell stimulations and readout was performed in a highly defined in vitro system using four different pMHC molecules per stimulation condition and 8 different pMHC molecules per readout condition. […]
800.000 beads/200 μl were coated in 96-well plates in the presence of 4×12.5 ng different biotin-pMHC, washed and 600 ng biotin anti-CD28 were added subsequently in a volume of 200 μl. […] For the pMHC multimer readout using 8 different pMHC molecules per condition, a two-dimensional combinatorial coding approach was used as previously described (Andersen et al., 2012) with minor modifications encompassing coupling to 5 different fluorochromes. […] Peptide specific cells were calculated as percentage of total CD8+ cells. […] In vitro priming of specific multimer+ CD8+ lymphocytes was detected by comparing to negative control stimulations.
With “774 (VYVDDIYVI; listed as Homo sapiens) [compound 774]” the “Wells positive [%]” value was “+++ (50%-69% = +++)”.
In the case of “773 (ALYGKLLKL; listed as Homo sapiens) [compound 773]”, the “Wells positive [%]” value is reported as “+++ (50%-69% = +++)”.
